From the Immune Epitope Database (IEDB)

Columns and labels:
[1] = target: HLA-A*02:06; assay: IEDB peptide-MHC binding, purified MHC/competitive/radioactivity; ≥ and ≤ were set here for values at or beyond the usual limits of such assays; conditions: source organism: Hepatitis B virus
[2] = target: HLA-A*02:02; assay: as above; conditions: source organism: Hepatitis B virus
[3] = target: HLA-A*68:01; assay: IEDB peptide-MHC binding, cellular MHC/competitive/fluorescence; ≥ and ≤ were set here for values at or beyond the usual limits of such assays; conditions: source organism: Hepatitis B virus
[4] = target: HLA-A*03:01; assay: as above; conditions: source organism: Hepatitis B virus
[5] = target: HLA-A*31:01; assay: as above; conditions: source organism: Hepatitis B virus
[6] = target: HLA-A*68:02; assay: as above
[7] = target: HLA-A*11:01; assay: as above; conditions: source organism: Hepatitis B virus
[8] = target: HLA-A*02:06; assay: as above
[9] = target: HLA-A*02:02; assay: as above
[10] = target: HLA-A*02:01; assay: as above
[11] = target: HLA-A*02:03; assay: as above
[12] = target: HLA-A*02:01; assay: IEDB peptide-MHC binding, purified MHC/competitive/radioactivity; ≥ and ≤ were set here for values at or beyond the usual limits of such assays; conditions: source organism: Hepatitis B virus
[13] = target: HLA-A*02:03; assay: as above; conditions: source organism: Hepatitis B virus
[14] = target: HLA-A*68:02; assay: as above; conditions: source organism: Hepatitis B virus
[15] = source organism: Hepatitis B virus
[16] = source organism: Vaccinia virus WR
[17] = source organism: Influenza A virus
[18] = source organism: Mammarenavirus machupoense

Sequence	IC50 [1]	IC50 [3]	IC50 [4]	IC50 [5]	IC50 [6, 15]	IC50 [7]	IC50 [8, 16]	IC50 [9, 16]	IC50 [6, 16]	IC50 [10, 16]	IC50 [11, 16]	other results
GLLGWSPQA	1.05 µM	≥ 70 µM	14 µM	9.14 µM	≥ 70 µM	≥ 70 µM	–	–	–	–	–	IC50 [2]: 51 nM
SMYPSCCCT	–	≥ 70 µM	≥ 70 µM	68.4 µM	≥ 70 µM	≥ 70 µM	–	–	–	–	–	IC50 [8, 15]: 9.31 µM; IC50 [9, 15]: 10.3 µM; IC50 [10, 15]: 6.43 µM; IC50 [11, 15]: 5.52 µM
GLSRYVARV	1.17 µM	≥ 70 µM	7.23 µM	24.7 µM	8.86 µM	≥ 70 µM	–	–	–	–	–	IC50 [2]: 11 nM; IC50 [12]: 0.154 µM; IC50 [13]: 0.0015 µM
VLLDYQGML	0.679 µM	≥ 70 µM	≥ 70 µM	12.8 µM	≥ 70 µM	35.2 µM	–	–	–	–	–	IC50 [2]: 53 nM; IC50 [12]: 0.081 µM; IC50 [11, 15]: 22.6 µM
PLLPIFFCL	0.087 µM	44.2 µM	≥ 70 µM	9.87 µM	33.1 µM	≥ 70 µM	–	–	–	–	–	IC50 [2]: 63 nM; IC50 [12]: 0.111 µM; IC50 [13]: 0.637 µM
FLLTRILTI	–	≥ 70 µM	≥ 70 µM	≥ 70 µM	22.3 µM	–	–	–	–	–	–	–
KVGAGAFGL	1.14 µM	≥ 70 µM	25 µM	12.6 µM	≥ 70 µM	≥ 70 µM	–	–	–	–	–	IC50 [9, 15]: 9.12 µM; IC50 [10, 15]: 11 µM; IC50 [11, 15]: 34.7 µM
FLLAQFTSA	0.0087 µM	≥ 70 µM	–	25.7 µM	9.89 µM	–	–	–	–	–	–	IC50 [12]: 0.098 µM
FLLAQFTSAI	0.045 µM	23.6 µM	11.2 µM	16.1 µM	–	≥ 70 µM	–	–	–	–	–	IC50 [2]: 3.6 nM; IC50 [13]: 0.00031 µM
SILSPFLPL	–	≥ 70 µM	–	–	–	–	–	–	–	–	–	–
YLVSFGVWI	1.84 µM	≥ 70 µM	15.2 µM	≥ 70 µM	38.2 µM	≥ 70 µM	–	–	–	–	–	IC50 [2]: 140 nM; IC50 [12]: 0.173 µM; IC50 [13]: 0.311 µM
ALMPLYACI	–	≥ 70 µM	≥ 70 µM	50.3 µM	–	≥ 70 µM	–	–	–	–	–	–
WLSLLVPFV	–	≥ 70 µM	40.3 µM	11.7 µM	–	–	–	–	–	–	–	–
YQGMLPVCPL	0.165 µM	≥ 70 µM	24 µM	11.4 µM	5.34 µM	≥ 70 µM	–	–	–	–	–	IC50 [2]: 35 nM; IC50 [12]: 0.543 µM; IC50 [13]: 0.02 µM
YMDDVVLGA	3.71 µM	≥ 70 µM	69.4 µM	≥ 70 µM	50.1 µM	≥ 70 µM	–	–	–	–	–	IC50 [13]: 1.29 µM
ILSPFLPLL	0.00093 µM	≥ 70 µM	–	–	–	–	–	–	–	–	–	IC50 [2]: 0.076 nM; IC50 [12]: 0.0014 µM; IC50 [13]: 0.00084 µM
FLGPLLVLQA	1.37 µM	≥ 70 µM	33.1 µM	14.7 µM	30.3 µM	61.2 µM	–	–	–	–	–	IC50 [2]: 3690 nM; IC50 [13]: 0.16 µM
FLPSDFFPSV	–	≥ 70 µM	≥ 70 µM	20.1 µM	–	–	–	–	–	–	–	IC50 [14]: 0.028 µM
GMLPVCPLI	–	≥ 70 µM	≥ 70 µM	–	–	≥ 70 µM	–	–	–	–	–	–
SLYSILSPFL	0.076 µM	64 µM	14.3 µM	5.67 µM	6.67 µM	≥ 70 µM	–	–	–	–	–	IC50 [2]: 1 nM; IC50 [12]: 0.0082 µM; IC50 [13]: 0.013 µM
EIITGNKVKT	–	–	–	–	–	–	≥ 70 µM	≥ 70 µM	≥ 70 µM	≥ 70 µM	≥ 70 µM	–
PTRTWKVLSI	–	–	–	–	–	–	≥ 70 µM	41.9 µM	42 µM	≥ 70 µM	15.1 µM	–
LLLVVQALR	–	–	–	–	–	–	–	–	–	–	–	IC50 [8, 17]: 8.59 µM; IC50 [9, 17]: 10.7 µM; IC50 [6, 17]: 60.4 µM; IC50 [10, 17]: 10.2 µM; IC50 [11, 17]: 34.6 µM
VVKDKIKLPT	–	–	–	–	–	–	29.1 µM	37.3 µM	42.7 µM	40.2 µM	8.6 µM	–
VIPFDDIVRT	–	–	–	–	–	–	18.2 µM	62.8 µM	42.2 µM	24.4 µM	50.3 µM	–
STQQNKLVI	–	–	–	–	–	–	≥ 70 µM	53 µM	25.7 µM	41.1 µM	14.4 µM	–
LLTHGADPNA	–	–	–	–	–	–	15.7 µM	9.61 µM	≥ 70 µM	11.2 µM	7.51 µM	–

Sequence	IC50 [1]	IC50 [3]	IC50 [4]	IC50 [5]	IC50 [6, 15]	IC50 [7]	IC50 [8, 16]	IC50 [9, 16]	IC50 [6, 16]	IC50 [10, 16]	IC50 [11, 16]	other results
NVKDYSIV	–	–	–	–	–	–	–	–	–	–	–	IC50 [8, 17]: ≥ 70 µM; IC50 [9, 17]: ≥ 70 µM; IC50 [6, 17]: 11.3 µM; IC50 [10, 17]: ≥ 70 µM; IC50 [11, 17]: 6.53 µM
RINLLVQYGA	–	–	–	–	–	–	7.65 µM	10.3 µM	21 µM	9.16 µM	15.3 µM	–
LLVLLDYQGM	1.81 µM	≥ 70 µM	19.5 µM	7.26 µM	61.1 µM	≥ 70 µM	–	–	–	–	–	IC50 [2]: 799 nM; IC50 [11, 15]: 5.58 µM
GVEVRYIDI	–	–	–	–	–	–	10.2 µM	12 µM	≥ 70 µM	16.4 µM	45.3 µM	–
ATQFNFNGHT	–	–	–	–	–	–	26.4 µM	28.6 µM	23.3 µM	38.6 µM	11.5 µM	–
LTPFEKEFT	–	–	–	–	–	–	≥ 70 µM	16.8 µM	≥ 70 µM	44.5 µM	20.9 µM	–
FLCKQYLNL	1.11 µM	≥ 70 µM	≥ 70 µM	26.3 µM	≥ 70 µM	≥ 70 µM	–	–	–	–	–	IC50 [2]: 175 nM; IC50 [13]: 0.011 µM
SAAFEDLRLL	–	–	–	–	–	–	–	–	–	–	–	IC50 [8, 17]: 23.5 µM; IC50 [9, 17]: 21.4 µM; IC50 [6, 17]: ≥ 70 µM; IC50 [10, 17]: 42.7 µM; IC50 [11, 17]: 13.6 µM
RISSSLDQT	–	–	–	–	–	–	27.8 µM	6.79 µM	67.5 µM	63.6 µM	12.8 µM	–
TVLGVSIL	–	–	–	–	–	–	–	–	–	–	–	IC50 [8, 17]: 5.69 µM; IC50 [9, 17]: 23.9 µM; IC50 [6, 17]: 15.8 µM; IC50 [10, 17]: 6.79 µM; IC50 [11, 17]: 14.2 µM
YNFSLSAAV	–	–	–	–	–	–	–	–	–	–	–	IC50 [8, 18]: ≥ 70 µM; IC50 [9, 18]: 46.3 µM; IC50 [6, 18]: 29.7 µM; IC50 [10, 18]: 7.51 µM; IC50 [11, 18]: ≥ 70 µM
PVETLFGSYI	–	–	–	–	–	–	≥ 70 µM	13.7 µM	7.16 µM	≥ 70 µM	11.8 µM	–
AIKQYGDIDL	–	–	–	–	–	–	≥ 70 µM	23.4 µM	38.7 µM	45.8 µM	46.4 µM	–
TIDNIVTSLA	–	–	–	–	–	–	≥ 70 µM	≥ 70 µM	≥ 70 µM	≥ 70 µM	≥ 70 µM	–
YTLIYRQLT	–	–	–	–	–	–	17.6 µM	6.41 µM	7.86 µM	28.5 µM	9.42 µM	–
NLSWLSLDV	2.74 µM	≥ 70 µM	9.22 µM	15.4 µM	28.4 µM	≥ 70 µM	–	–	–	–	–	IC50 [2]: 69 nM; IC50 [13]: 0.05 µM
NMDKVSAQNI	–	–	–	–	–	–	≥ 70 µM	8.02 µM	37.3 µM	16 µM	16.8 µM	–
IAYERMCNIL	–	–	–	–	–	–	–	–	–	–	–	IC50 [8, 17]: 7.91 µM; IC50 [9, 17]: 24 µM; IC50 [6, 17]: 24.6 µM; IC50 [10, 17]: ≥ 70 µM; IC50 [11, 17]: 16.5 µM
ILLRAFTEEGA	–	–	–	–	–	–	–	–	–	–	–	IC50 [8, 17]: 26.3 µM; IC50 [9, 17]: 9.59 µM; IC50 [6, 17]: ≥ 70 µM; IC50 [10, 17]: 11.9 µM; IC50 [11, 17]: 26.5 µM
ALSYSTGA	–	–	–	–	–	–	–	–	–	–	–	IC50 [8, 17]: ≥ 70 µM; IC50 [9, 17]: ≥ 70 µM; IC50 [6, 17]: ≥ 70 µM; IC50 [10, 17]: ≥ 70 µM; IC50 [11, 17]: 25.8 µM
SADNHPKMI	–	–	–	–	–	–	≥ 70 µM	8.18 µM	≥ 70 µM	14.5 µM	43.5 µM	–
PVDLVKSSFV	–	–	–	–	–	–	26.6 µM	6.61 µM	10.8 µM	39.3 µM	9.64 µM	–
DIMLPESDL	–	–	–	–	–	–	31.6 µM	18.5 µM	13.4 µM	12.9 µM	35.8 µM	–
AVSVYGAIT	–	–	–	–	–	–	14.2 µM	11.4 µM	6.28 µM	7.23 µM	9.62 µM	–
HQLDPAFRA	0.118 µM	≥ 70 µM	≥ 70 µM	40.6 µM	≥ 70 µM	14.7 µM	–	–	–	–	–	IC50 [9, 15]: 16 µM; IC50 [10, 15]: 6.45 µM; IC50 [11, 15]: 55.9 µM
SIENKHQRRL	–	–	–	–	–	–	53.6 µM	17 µM	≥ 70 µM	≥ 70 µM	21.1 µM	–
